# Experimental data published in PMC6819661.
# Columns and labels:
# GST-NS2A (Zika virus) = experiment: EMSA; details: EMSA: 50 mM Tris-HCl pH 7.5, 10 mM 2-mercaptoethanol, 2 mM MgCl2, 50 mM KCl, 15 min at 24 C, 100 pM biotinylated RNA, 0.4% agarose; pull-down: Pierce magnetic …
# [1] = test system: GST-NS2A(58-133) (Zika virus); experiment: pull-down; details: EMSA: 50 mM Tris-HCl pH 7.5, 10 mM 2-mercaptoethanol, 2 mM MgCl2, 50 mM KCl, 15 min at 24 C, 100 pM biotinylated RNA, 0.4% agarose; pull-down: Pierce magnetic …
substance,measurement,setting,value
5' UTR-C66-3' UTR-biotin RNA,Kd,GST-NS2A (Zika virus),10.3 nM
same,binding signal (% (reference)),[1],100
